Data on five substances can be found in PMC7042713.

What all share (assay): SEC-MALS
On the technique in general: SEC sorts molecules by how far they enter the pores of the column.

Experiment [1] deals with BhDIX K82A. Particulars: monomer mass of BhDIX printed in panel as 24kD; parent: 90.
For experiment [2], the target named is CpDIX D67A. Particulars: monomer mass of CpDIX printed in panel as 22kD; parent: 90.
The target in experiment [3] is BhDIX L8A. As to conditions: parent: est. 9.0e4; read off a plot.
The target of experiment [4] is AtSOK1 DIX domain D78A. As to conditions: 2mg/ml D78A; parent value is 2mg/ml wt; calculated monomer mass of AtSOK1 DIX 25 kD (panel A); parent: 87.
The target of experiment [5] is BhDIX Y10A. Particulars: parent: est. 9.0e4; read off a plot.

Regarding Blastocystis hominis DIX domain K82A, the other: observed molar mass (SEC-MALS, self-association) in experiment [1] worked out at 23 kD.
As for Cryptosporidium parvum DIX domain D67A, the other: observed molar mass (SEC-MALS, self-association) in experiment [2] came out at 22 kD.
Regarding Blastocystis hominis DIX domain L8A, the other: observed molar mass (SEC-MALS, self-association) in experiment [3] came to 55000 g/mol.
In the case of “AtSOK1 DIX domain (Arabidopsis thaliana SOSEKI1), wild type D78A”, the other: observed molar mass (SEC-MALS, self-association) in experiment [4] is 25 kD.
For the substance Blastocystis hominis DIX domain Y10A, the other: observed molar mass (SEC-MALS, self-association) in experiment [5] was determined as 35000 g/mol.
